# Laboratory results taken from patent publication US6395526B1, “DNA polymerase” (Takara Shuzo Co., Ltd., priority 1995, dated 2002).
# Entries after “also recorded” stand apart in the source; their conditions may differ.
# Test system: 32P-labeled DNA fragment from pUC119 vector
# Experiment: Associated exonuclease activity
# Type: biochemical
# Conditions: 75° C.
# Procedure: The exonuclease activity of the DNA polymerase of the present invention was assessed as follows: As a substrate for 5′→3′ exonuclease activity detection, a DNA fragment labeled with ^32P at the 5′-end was prepared by a process comprising digesting a pUC119 vector (manufactured by Takara Shuzo Co., Ltd.) with SspI (manufactured by Takara Shuzo Co., Ltd.), separating the resulting 386 bp DNA fragment by agarose gel electrophoresis, purifying the fragment, and labeling with [γ-^32P]-ATP and polynucleotide kinase. Also, as a substrate for 3′→5′ exonuclease activity detection, a DNA fragment labeled with ^32P at 3′-end was prepared by a process comprising digesting a pUC119 vector with Sau3AI, separating the resulting 341 bp DNA fragment by agarose gel electrophoresis, purifying the fragment, and carrying out a fill-in reaction using […] (manufactured by Amersham) and the Klenow fragment (manufactured by Takara Shuzo Co., Ltd.). […] The radioactivity existing in the supernatant was assayed using a liquid scintillation counter, and the amount of degradation by the exonuclease activity was calculated.
# In the figure, the abscissa indicates the reaction time, and the ordinate indicates the ratio of radioactivity released into the supernatant relative to the radioactivity contained in the entire reaction mixture. […]
substance,measurement,setting,value
"DNA Polymerase of the Present Invention: complex of first (ORF3, SEQ ID NO:2) and second (ORF4, SEQ ID NO:4) DNA polymerase-constituting proteins from Pyrococcus furiosus",3′→5′ exonuclease activity,3′-end labeled 341 bp fragment,potent; also recorded: of the same level as that of the Pfu DNA polymerase
same,5′→3′ exonuclease activity,5′-end labeled 386 bp fragment,no 5′→3′exonuclease activity was observed
